Results from publication PMC4860257 (Structure (London, England : 1993), 2016).
Substitutions are numbered along the chain they refer to. In names and notes the source's numbering stands.

B1: GST-tagged talin R9 domain (residues 1655-1822), wild type (domain or fragment, UniProt P26039 1655-1822, looked up)
chain: APGQLECETAIAALNSCLRDLDQASLAAVSQQLAPREGISQEALHTQMLTAVQEISHLIEPLASAARAEASQLGHKVSQMAQYFEPLTLAAVGAASKTLSHPQQMALLDQTKTLAESALQLLYTAKEAGGNPKQAAHTQEALEEAVQMMTEAVEDLTTTLNEAASAAG
B2: GST-tagged talin R9-3Y (E1794Y/E1797Y/Q1801Y) (domain or fragment, UniProt P26039 1655-1822, looked up)
chain: B1 chain with E140Y, E143Y, Q147Y
B3: GST-tagged talin R9-T1812Y (domain or fragment, UniProt P26039 1655-1822, looked up)
chain: B1 chain with T158Y
B4: talin R7R8R9 (residues 1357-1822), wild type, His tag removed, as crystallised (domain or fragment, UniProt P26039 1357-1822, looked up)
chain: APGQKECDNALRQLETVRELLENPVQPINDMSYFGCLDSVMENSKVLGEAMTGISQNAKNGNLPEFGDAIATASKALCGFTEAAAQAAYLVGVSDPNSQAGQQGLVEPTQFARANQAIQMACQSLGEPGCTQAQVLSAATIVAKHTSALCNSCRLASARTANPTAKRQFVQSAKEVANSTANLVKTIKALDGDFTEENRAQCRAATAPLLEAVDNLSAFASNPEFSSVPAQISPEGRAAMEPIVISAKTMLESAGGLIQTARALAVNPRDPPRWSVLAGHSRTVSDSIKKLITSMRDKAPGQLECETAIAALNSCLRDLDQASLAAVSQQLAPREGISQEALHTQMLTAVQEISHLIEPLASAARAEASQLGHKVSQMAQYFEPLTLAAVGAASKTLSHPQQMALLDQTKTLAESALQLLYTAKEAGGNPKQAAHTQEALEEAVQMMTEAVEDLTTTLNEAASAAG
B5: GST-tagged talin F2F3 domains (residues 196-405) (domain or fragment, UniProt P26039 196-405, looked up)
chain: KFFYSDQNVDSRDPVQLNLLYVQARDDILNGSHPVSFDKACEFAGFQCQIQFGPHNEQKHKAGFLDLKDFLPKEYVKQKGERKIFQAHKNCGQMSEIEAKVRYVKLARSLKTYGVSFFLVKEKMKGKNKLVPRLLGITKECVMRVDEKTKEVIQEWSLTNIKRWAASPKSFTLDFGDYQDGYYSVQTTEGEQIAQLIAGYIDIILKKKKS
B6: His-tagged talin R7R8R9-3Y (E1794Y/E1797Y/Q1801Y) (domain or fragment, UniProt P26039 1357-1822, looked up)
chain: B4 chain with E438Y, E441Y, Q445Y
B7: His-tagged talin R7R8R9-2Y (E1794Y/E1797Y) (domain or fragment, UniProt P26039 1357-1822, looked up)
chain: B4 chain with E438Y, E441Y

Legend:
[1] = target: His-tagged talin F2F3 domains (residues 196-405), wild type (UniProt P26039 196-405); test: pull-down
[2] = target: His-tagged talin F2F3-K322A (UniProt P26039 196-405, K322A); test: pull-down
[3] = target: His-tagged talin F2F3-K324A (UniProt P26039 196-405, K324A); test: pull-down
[4] = target: His-tagged talin F2F3-KKR (K272A/K274A/R277A) (UniProt P26039 196-405, K272A | K274A | R277A); test: pull-down
crystal structure = target: the molecule itself; test: crystal structure
[5] = target: His-tagged talin R7R8R9 (residues 1357-1822), wild type (UniProt P26039 1357-1822); test: pull-down
[6] = target: B7; test: pull-down
[7] = target: B6; test: pull-down
SEC-MALS = target: the molecule itself; test: SEC-MALS

Binder: B1
- binding result [1]: binds
- binding result [2]: binds
- binding result [3]: binds
- binding result [4]: binds

Binder: B2
- binding result [1]: binds

Binder: B3
- binding result [1]: binds

Binder: B4
- binding result (crystal structure): binds

Binder: B5
- binding result [5]: binds
- binding result [6]: binds
- binding result [7]: binds

Binder: B6
- stoichiometry N (SEC-MALS): 2

Binder: B7
- stoichiometry N (SEC-MALS): 2
